{"source": "the nanobody polyreactivity screen of Harvey et al. (2022)"}
{"experiment": "yeast display, Sf9 membrane polyspecificity reagent, FACS + sequencing; frameworks hold sequencing errors", "procedure,_shortened": "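Using colony PCR, genes from sorted yeast display clones were amplified, then sequenced on MiSeq at 2 × 250 and filtered by CDR length. The clones had been stained with 10% biotinylated, detergent-solubilized Sf9 membrane reagent for 1 hour at 4 °C and sorted by FACS into low and high (top ~1%) gates on anti-HA and streptavidin fluorescence. Polyreactivity labels come from the gate of origin.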"}
{"sequence": "QVQLVESGGGLVQAGGSLRLSCAASGSTFTYNAMGWYRQAPGKERELVAAISWSGGRTYYADSVKGRFTISRDNATNTVYLQMNSLKPEDTAVYSCAAKYRYSTYSFPYDYWGQGTQVTVSS", "polyreactivity (PSR sort gate)": "high polyreactivity"}
{"sequence": "QVQLVESGGGLVQAGGSLRLSCAASGSTFTYYAMGWYRQAPGKERELVADISWDGGSTYYADSVKGRFTFSRDNAKNTVYLQMNSLKPEDTAVYYCATDLVYKYDYWGQGTQVTVSS", "polyreactivity (PSR sort gate)": "low polyreactivity"}
{"sequence": "QVQLVESGGGLVQAGGSLRLSCAASGSTFTYYAMGWYRQAPGKERELVASITTSGGDTNYADSVKGRFTISRDNAKNTVYLQMNSLKPEDTAVYYCAADLYDPYHVYGYNYWGQGTQVTVSS", "polyreactivity (PSR sort gate)": "low polyreactivity"}
{"sequence": "QVQLVESGGGLVQAGGSLRLSCAASGSTFVDNAMGWYRQAPGKERELVAAINSTDITNYADSVKGRFTISRDNAKNTVYLQMNSLKPEDTAVYYCAKDLLKWRKYQWYYYWGQGTQVTVSS", "polyreactivity (PSR sort gate)": "low polyreactivity"}
{"sequence": "QVQLVESGGGLVQAGGSLRLSCAASGSTFVDNAMGWYRQAPGKERELVAAISSSGGTTYYADSVKGRFTISRDNAKNTVYLQMNSLKPEDTAVYYCAARRRSGTYWRSANDYWGQGTQVTVSS", "polyreactivity (PSR sort gate)": "high polyreactivity"}
{"sequence": "QVQLVESGGGLVQAGGSLRLSCAASGSTFVDNAMGWYRQAPGKERELVAAISTRGGTTYYADSVKGRFTISRDNAKNTVYLQMNSLKPEDTAVYYCAADYYDSGWYGYWGQGTQVTVSS", "polyreactivity (PSR sort gate)": "high polyreactivity"}
{"sequence": "QVQLVESGGGLVQAGGSLRLSCAASGSTFVDNAMGWYRQAPGKERELVADITWSGGSTYYADSVKGRFTISRDNAKNTVYLQMNSLKPEDTAVYYCAKVPKSRGYVGGMDYWGQGTQVTVSS", "polyreactivity (PSR sort gate)": "low polyreactivity"}
{"sequence": "QVQLVESGGGLVQAGGSLRLSCAASGSTFVDNAMGWYRQAPGKEREMVAAIRYGSGGSTRYADSVKGRFTISRDNAKNTVYLQMNSLKPEDTAVYYCAADGYITVNYLRYDYWGQGTQVTVSS", "polyreactivity (PSR sort gate)": "low polyreactivity"}
{"sequence": "QVQLVESGGGLVQAGGSLRLSCAASGSTFVDNLMGWYRQSPGKERELVAAIDFSTGSTYYADSVKGRFTISRDNAKNTVYLQMNSLKPDDTAVYYCNAKYYSWDWSSFNYWGQGTQVTVSS", "polyreactivity (PSR sort gate)": "low polyreactivity"}
{"sequence": "QVQLVESGGGLVQAGGSLRLSCAASGSTFVDYAMGWYRQAPGKERELVAAINRSGGRTYYADSVKGRFTISRDNAKNTVYLQMNSLKPEDTAVYYCAAKNPQPDEHGYWGQGTQVTVSS", "polyreactivity (PSR sort gate)": "high polyreactivity"}
{"sequence": "QVQLVESGGGLVQAGGSLRLSCAASGSTFVFYAMGWYRQAPGKERELVAAISRSGGSTYYADSVKGRFTISRDNAKNTVYLQMNSLKPEDTAVYYCNAVRFYRYGWGQGTQVTVSS", "polyreactivity (PSR sort gate)": "high polyreactivity"}
{"sequence": "QVQLVESGGGLVQAGGSLRLSCAASGSTFVFYAMGWYRQAPGKERELVATISSGGSTYADSVKGRFTISRDNAKNTVYLQMYSLKPEDTAVYYCAADSLFGHYDYWGQGTQVTVSS", "polyreactivity (PSR sort gate)": "low polyreactivity"}
{"sequence": "QVQLVESGGGLVQAGGSLRLSCAASGSTFVGNAMGWYRQAPGKERELVAAISRGGGRTYYADSVKGRFTISRDNAKNTVYLQMNSLKPEDTAVYYCNADVYHRAWHLDYWGQGTQVTVSS", "polyreactivity (PSR sort gate)": "high polyreactivity"}
{"sequence": "QVQLVESGGGLVQAGGSLRLSCAASGSTFVGYAMGWYRPAPGKDRELFAAITRGGGSTYYADSVKWRFTISRDNAKNTVYLQINSLKPEDTAVYYCAAYQHPGLRTSYEYWGQGTQVTVSS", "polyreactivity (PSR sort gate)": "low polyreactivity"}
{"sequence": "QVQLVESGGGLVQAGGSLRLSCAASGSTFVGYAMGWYRQAPGKERELVAAISERGGRTYYADSVKGRFTISRDNAKNTVYLQMNSLKPEDTAVYYCAAYGRYPRLYTYYYWGQGTQVTVSS", "polyreactivity (PSR sort gate)": "high polyreactivity"}
{"sequence": "QVQLVESGGGLVQAGGSLRLSCAASGSTFVGYAMGWYRQAPGKERELVAAISSSGSTNYADSVKGRFTISRDNAKNTVYLQMNSLKPEDTAVYYCAALYSYFWLIIDYGYWGQGTQVTVSS", "polyreactivity (PSR sort gate)": "low polyreactivity"}
{"sequence": "QVQLVESGGGLVQAGGSLRLSCAASGSTFVGYAMGWYRQAPGKERELVADIDSIGGSTYYADSVNGRFTISRDNAKNTVYLQMNSLKPEDTAVYYCAARRFDTALVLYDYWGQGTQVTVSS", "polyreactivity (PSR sort gate)": "low polyreactivity"}
{"sequence": "QVQLVESGGGLVQAGGSLRLSCAASGSTFVGYAMGWYRQAPGKEREVVAAISGSGTSTYYADSVKGRFTISRDNAKNTVYLQMNSLKPEDTAVYYCNSDPIFVYSSYNYWGQGTQVTVSS", "polyreactivity (PSR sort gate)": "low polyreactivity"}
{"sequence": "QVQLVESGGGLVQAGGSLRLSCAASGSTFVGYAMGWYRQAPGKVRELVADITSGGGITYYADSVKGRFTISRDNAKNTVYLQMNSLKPDDTAVYYCAPGRPRPHWWSLDYYYWGQGTQVTVSS", "polyreactivity (PSR sort gate)": "low polyreactivity"}
{"sequence": "QVQLVESGGGLVQAGGSLRLSCAASGSTFVGYVMGWYRQAPGKERELVAAITRSGTSTYYADSVKGRFTISRDNAKNTVYLQMNSLKPEDTAVYYCALRYVSSDYYYWGQGTQVTVSS", "polyreactivity (PSR sort gate)": "low polyreactivity"}
{"sequence": "QVQLVESGGGLVQAGGSLRLSCAASGSTFVHYDMGWYRQAPGKERELVAGSTTGGSTNYADSVKGRFTISRDNAKNTVYLQMNSLKPEDTAVYYCNADSYPNLVPDYLYYWYEYWGQGTQVTVSS", "polyreactivity (PSR sort gate)": "low polyreactivity"}
{"sequence": "QVQLVESGGGLVQAGGSLRLSCAASGSTFVHYGMGWYRQAPGKERELVAAISYSGGSTSYADSVKGRFTISRDNAKNTVYLQMNSLKPEDTAVYYCATVRKRRYDYWGQGTQVTVSS", "polyreactivity (PSR sort gate)": "low polyreactivity"}
{"sequence": "QVQLVESGGGLVQAGGSLRLSCAASGSTFVIYAMGWYRQAPGKERELVASIRGRTGSTYYADSVKGRFTISRDNAKNTVYSQLNSLKPEDTAVYYCAAKPGYKSKMDYWGQGTQVTVSS", "polyreactivity (PSR sort gate)": "high polyreactivity"}
{"sequence": "QVQLVESGGGLVQAGGSLRLSCAASGSTFVIYDMGWYRQAPGKERELVAAISYSGGSTYYADSVKGRFTISRDNAKNTVYLQMNSLKPEDTAVYYCNAGVLVLLYAYLPSELEYWGQGTQVTVSS", "polyreactivity (PSR sort gate)": "low polyreactivity"}
{"sequence": "QVQLVESGGGLVQAGGSLRLSCAASGSTFVKNTMGWYRQAPGKERELVAAIRSSGGSTYYADSVKGRFTISRDNAKNTVYLQMNSLKPEDTAVYYCNKVLQASRSKYYYWGQGTQVTVSS", "polyreactivity (PSR sort gate)": "high polyreactivity"}
{"sequence": "QVQLVESGGGLVQAGGSLRLSCAASGSTFVLNAMGWDRQAPGKERELVAAITRDGRTYYADSVKGRFTISRDNAKNTVYLQMNSLKPEDTAVYYCARPARYSYGDGYWGQGTQVTVSS", "polyreactivity (PSR sort gate)": "low polyreactivity"}
{"sequence": "QVQLVESGGGLVQAGGSLRLSCAASGSTFVLNAMGWYRQAPGKERELVAAISSGGRTYYADSVKGRFTISRDNAKNTVYLQMNSLKPEDTAVYYCAAKPYRGGHRTLFGYWGQGTQVTVSS", "polyreactivity (PSR sort gate)": "high polyreactivity"}
{"sequence": "QVQLVESGGGLVQAGGSLRLSCAASGSTFVLYAMGWYRQAPGKERELVATISSGGSTYYADSVKGRFTISRDNAKNTVYLQMNRLKPEDTAVYYCAASYSRFVDWIGDPGYDYWGQGTQVTVSS", "polyreactivity (PSR sort gate)": "low polyreactivity"}
{"sequence": "QVQLVESGGGLVQAGGSLRLSCAASGSTFVNNAMGWYRQAPGTERELVAAIRSSDGRTYYADSVKGRFTISRDNAKNTVYLQMNSLKPEDTAVYYCATAVGTKYRTRIFEYYYWGQGTQVTVSS", "polyreactivity (PSR sort gate)": "high polyreactivity"}
{"sequence": "QVQLVESGGGLVQAGGSLRLSCAASGSTFVPNAMGWYRQAPGKEREFVAAIRVSGDNTYYADSVKGRFTISRDNAKNTVYLQMNSLKPEDTAVYYCAATGTVLGSVDYWGQGTQVTVSS", "polyreactivity (PSR sort gate)": "low polyreactivity"}
{"sequence": "QVQLVESGGGLVQAGGSLRLSCAASGSTFVRNAMGWYRQAPGKERELVAAISRSGGRTYYADSVKGRFTISRDNAKNTVYLQMNSLKPEDTAVYYCAADVYDAGVRYDYWGQGTQVTVSS", "polyreactivity (PSR sort gate)": "high polyreactivity"}
{"sequence": "QVQLVESGGGLVQAGGSLRLSCAASGSTFVRNAMGWYRQAPGKERELVAGISTGDNTYYADSVKGRFTISRDNAKNTVNLQMNSLKPEDTAVYYCAARGLPSNYYYYVHGYIMDYWGQGTQVTVSS", "polyreactivity (PSR sort gate)": "low polyreactivity"}
